The target of the experiment is Myc-nectin-1-CP (aa 379–518) (human). The experiment in a line: pull-down.

B1: GST-l-afadin-PDZ (aa 1007–1125) (domain or fragment)
chain: PLRKEPEVITVTLKKQNGMGLSIVAAKGAGQDKLGIYVKSVVKGGAADVDGRLAAGDQLLSVDGRSLVGLSQERAAELMTRTSSVVTLEVAKQGAIYHGLATLLNQPSPMMQRISDRRG
The stoichiometry N is a count of units in the complex or per binding partner. In the case of B1, the stoichiometry N was 1.
